Laboratory results taken from patent US20110300138A1 (published 2011).

What was measured:
[1] = molecular target: human TSHR (thyroid stimulating hormone receptor) expressed in transfected CHO cells (human) (UniProt P16473); assay: cell-based or functional assay
[2] = molecular target: human TSH receptor (full length, wild type) expressed in CHO cells (human) (UniProt P16473); assay: cell-based or functional assay
[3] = molecular target: human TSH receptor (wild type), expressed on transfected CHO cells (human) (UniProt P16473); assay: cell-based or functional assay
[4] = molecular target: human TSHR expressed in CHO cells (human) (UniProt P16473); assay: cell-based or functional assay
TSHR260-AP (human) [5] = assay: TSHR260-AP bridge ELISA (full length TSHR on wells, TSHR260-AP in solution); IgG 10 µg/mL diluted in assay buffer
[6] = molecular target: TSHR260-alkaline phosphatase (TSHR260-AP) (human) (UniProt P05187); assay: TSHR260-AP bridge ELISA, full length TSHR on wells; 0.1 µg/mL, diluted in assay buffer
TSHR260-AP (human) [7] = assay: TSHR260-AP bridge ELISA (full length TSHR on wells, TSHR260-AP in solution); IgG 1 µg/mL diluted in assay buffer
[8] = molecular target: TSHR260-alkaline phosphatase (TSHR260-AP) (human) (UniProt P05187); assay: TSHR260-AP bridge ELISA, full length TSHR on wells; 0.1 µg/mL, diluted in HBD
[9] = molecular target: TSHR260-alkaline phosphatase (TSHR260-AP) (human) (UniProt P05187); assay: TSHR260-AP bridge ELISA, full length TSHR on wells; 0.05 µg/mL, diluted in HBD

B1: 5C9 IgG (antibody, from another filing, V domains shown)
VH: EVQLVESGGGLIQPGGSLRLSCAASGFTVSSNYMSWVRQAPGKGLEWVSVTYSGGSTSYADSVKGRFTISRDNSKNTLYLQMNSLRAEDTAVYYCARGGRYCSSISCYARSGCDYWGQGTLVTVSS
VL: AIQMTQSPSSLSASVGDRVTITCRASQSISNYLNWYQQKPGKAPKLLIYAASSLQSGVPSRFSGSGSGTDFTLTISSLQPEDFATYYCQQSYSSPSTTFGQGTKLEIK
B1 gave a % Inhibition; 3 ng/mL M22 IgG + 0.001 µg/mL 5C9 IgG [1] of 7.7%, a % Inhibition; 3 ng/mL M22 IgG + 0.01 µg/mL 5C9 IgG [1] of 25.2% and a % Inhibition; 3 ng/mL M22 IgG + 0.1 µg/mL 5C9 IgG [1] of 92.8%. It also gave a % Inhibition; 3 ng/mL M22 IgG + 1 µg/mL 5C9 IgG [1] of 97.1%, a % Inhibition; 3 ng/mL M22 IgG + 10 µg/mL 5C9 IgG [1] of 94.4% and a % Inhibition; 3 ng/mL M22 IgG + 100 µg/mL 5C9 IgG [1] of 97.1%. The Cyclic AMP concentration; 3 ng/mL M22 IgG + 0.001 µg/mL 5C9 IgG [1] was 41 pmol/mL, the Cyclic AMP concentration; 3 ng/mL M22 IgG + 0.01 µg/mL 5C9 IgG [1] was 33.2 pmol/mL and the Cyclic AMP concentration; 3 ng/mL M22 IgG + 0.1 µg/mL 5C9 IgG [1] was 3.2 pmol/mL. It also gave a Cyclic AMP concentration; 3 ng/mL M22 IgG + 1 µg/mL 5C9 IgG [1] of 1.3 pmol/mL, a Cyclic AMP concentration; 3 ng/mL M22 IgG + 10 µg/mL 5C9 IgG [1] of 2.5 pmol/mL and a Cyclic AMP concentration; 3 ng/mL M22 IgG + 100 µg/mL 5C9 IgG [1] of 1.3 pmol/mL. The Cyclic AMP concentration; 100 µg/mL 5C9 IgG [1] was 1.7 pmol/mL, the % Inhibition; T1 serum + 100 µg/mL 5C9 IgG [2] was 98.7% and the % Inhibition; T2 serum + 100 µg/mL 5C9 IgG [2] was 98.2%. The % Inhibition; T3 serum + 100 µg/mL 5C9 IgG [2] was 97.8%, the Cyclic AMP concentration; 100 µg/mL 5C9 IgG alone [2] was 1 pmol/mL and the Cyclic AMP concentration; HBD + 100 µg/mL 5C9 IgG [2] was 0.9 pmol/mL. The Cyclic AMP concentration; T1 serum + 100 µg/mL 5C9 IgG [2] was 1.3 pmol/mL, the Cyclic AMP concentration; T2 serum + 100 µg/mL 5C9 IgG [2] was 1.1 pmol/mL and the Cyclic AMP concentration; T3 serum + 100 µg/mL 5C9 IgG [2] was 1.4 pmol/mL. It also gave a % Inhibition (constitutive activity); 0.1 µg/mL 5C9 IgG [3] of 0%, a % Inhibition (constitutive activity); 0.2 µg/mL 5C9 IgG [3] of 0% and a % Inhibition (constitutive activity); 1 µg/mL 5C9 IgG [3] of 45.9%. For the same binder, the % Inhibition (constitutive activity); 2 µg/mL 5C9 IgG [3] was 45.3%, the % Inhibition; 5C9 IgG 0.01 µg/mL + T11 [3] was 4.3% and the % Inhibition; 5C9 IgG 0.1 µg/mL + T11 [3] was 19.8%. The % Inhibition; 5C9 IgG 1 µg/mL + T11 [3] was 23%, the % Inhibition; 5C9 IgG 10 µg/mL + T11 [3] was 13.9% and the % Inhibition; 5C9 IgG 100 µg/mL + T11 [3] was 11.1%. It also gave a % Inhibition; pTSH 3 ng/mL + 0.001 µg/mL 5C9 [3] of 0.2%, a % Inhibition; pTSH 3 ng/mL + 0.01 µg/mL 5C9 [3] of 0% and a % Inhibition; pTSH 3 ng/mL + 0.1 µg/mL 5C9 [3] of 78.7%. The % Inhibition; pTSH 3 ng/mL + 1 µg/mL 5C9 [3] was 93.5%, the % Inhibition; pTSH 3 ng/mL + 10 µg/mL 5C9 [3] was 98% and the % Inhibition; pTSH 3 ng/mL + 100 µg/mL 5C9 [3] was 99.2%. For the same binder, the Cyclic AMP concentration; 100 µg/mL 5C9 alone [3] was 0.2 pmol/mL, the Cyclic AMP concentration; 5C9 IgG 0.01 µg/mL + T11 [3] was 24.1 pmol/mL and the Cyclic AMP concentration; 5C9 IgG 0.1 µg/mL + T11 [3] was 20.2 pmol/mL. For the same binder, the Cyclic AMP concentration; 5C9 IgG 1 µg/mL + T11 [3] was 19.4 pmol/mL, the Cyclic AMP concentration; 5C9 IgG 10 µg/mL + T11 [3] was 21.7 pmol/mL and the Cyclic AMP concentration; 5C9 IgG 100 µg/mL + T11 [3] was 22.4 pmol/mL. It also gave a Cyclic AMP concentration; 5C9 IgG 100 µg/mL alone [3] of 0.9 pmol/mL, a Cyclic AMP concentration; pTSH 3 ng/mL + 0.001 µg/mL 5C9 [3] of 64.1 pmol/mL and a Cyclic AMP concentration; pTSH 3 ng/mL + 0.01 µg/mL 5C9 [3] of 64.6 pmol/mL. The Cyclic AMP concentration; pTSH 3 ng/mL + 0.1 µg/mL 5C9 [3] was 13.7 pmol/mL, the Cyclic AMP concentration; pTSH 3 ng/mL + 1 µg/mL 5C9 [3] was 4.2 pmol/mL and the Cyclic AMP concentration; pTSH 3 ng/mL + 10 µg/mL 5C9 [3] was 1.3 pmol/mL. The Cyclic AMP concentration; pTSH 3 ng/mL + 100 µg/mL 5C9 [3] was 0.5 pmol/mL, the Cyclic AMP production (constitutive activity); 0.1 µg/mL 5C9 IgG [3] was 68.2 pmol/mL and the Cyclic AMP production (constitutive activity); 0.2 µg/mL 5C9 IgG [3] was 58.8 pmol/mL. For the same binder, the Cyclic AMP production (constitutive activity); 1 µg/mL 5C9 IgG [3] was 31.4 pmol/mL, the Cyclic AMP production (constitutive activity); 2 µg/mL 5C9 IgG [3] was 31.8 pmol/mL and the % Inhibition; 5C9 IgG 0.003 µg/mL + 3 ng/mL pTSH [4] was 10.4%. For the same binder, the % Inhibition; 5C9 IgG 0.0075 µg/mL + 3 ng/mL pTSH [4] was 76.5%, the % Inhibition; 5C9 IgG 0.01 µg/mL + 3 ng/mL pTSH [4] was 1% and the % Inhibition; 5C9 IgG 0.025 µg/mL + 3 ng/mL pTSH [4] was 26%. For the same binder, the % Inhibition; 5C9 IgG 0.05 µg/mL + 3 ng/mL pTSH [4] was 62.8%, the % Inhibition; 5C9 IgG 0.1 µg/mL + 3 ng/mL pTSH [4] was 81.8% and the % Inhibition; 5C9 IgG 0.3 µg/mL + 3 ng/mL pTSH [4] was 87.5%. It also gave a % Inhibition; 5C9 IgG 1 µg/mL + 3 ng/mL pTSH [4] of 92.3%, a % Inhibition; 5C9 IgG 3 µg/mL + 3 ng/mL pTSH [4] of 92.8% and a Mean absorbance at 405 nm (absorbance at 405 nm) (TSHR260-AP (human) [5]) of 0.099. For the same binder, the Mean absorbance at 405 nm (absorbance at 405 nm) [6] was -0.013, the Mean absorbance at 405 nm (absorbance at 405 nm) (TSHR260-AP (human) [7]) was 0.011 and the Mean absorbance at 405 nm (absorbance at 405 nm) [8] was -0.005. It also gave a Mean absorbance at 405 nm (absorbance at 405 nm) [9] of -0.003.
